# Data reported in paper PMC11343839, “Structural mechanism of proton conduction in otopetrin proton channel” (Nature Communications, 2024).
# Positions count from the first letter of the chain named. In names and notes the source's numbering stands.
# B1: Caenorhabditis elegans Otopetrin-like 8 (CeOTOP8), wild type, full length (natural protein, UniProt G5EDX5 1-619, looked up)
# chain: MLMVDEQLKIGATPMYSPSHNPIVIADDMEKGGSDSDSLPSSPTHHHELYRRPWIHEPRATNFFVRLITSLYALILTIISLVVEVSPTWRTDMWLAETIFYISMYGVGILFFAYCYIFIIYPGPYNQLISVLRKYKIIKNSEVWFIMQSQHNGEGAGTLYLRLGALFFGSVGIVLFGLELFLCIENVACKKVAIAKMIVAIVFTFIQMHFIFCNSKITVNSSRKIVAFGMMHLISVNLWTWFRFVLAKQEAKAHKKAQLKQTFRKYYSSSSSSSSEEIHELISAVLNSTLNNTPATKTMEPVASRLFALEHFGDVATFLTTCIVEYSLIGAAIMFILWKSIGQNNHQQSNSGKRKVKMRIDCSSSSTGLFAGIIFLIGSLVSMGMYTIFESLRNSSGAQLVFGIVDLSLFSIALGACIIGLWRMRHLQYRLHAHGEVIDEILLIIGLIGEILYCAVGIDVFITCRRSADLTVSALPAFVFVIRMIQVVVQAAFILTTSRLRCLSKYSMKYKPGKEIITFLLVSNVTLFVFHTFEGMKSSFGFSSKAATQYNYIIYAVGPLLVFYRFHSSACLAEIWKHTYSTKSNEYDHEHMSLSDSNLTAITPISDIKEIPSPQLLKH
# notes: Otopetrin-like 8 (CeOTOP8), Caenorhabditis elegans; wild-type full-length channel; the AlphaFold model AF-G5EDX5-F1 was the initial model; A thrombin cleavage site stood between the protein and the C-terminal 10x His tag; residues of the site may remain after digestion; also called WT CeOTOP8; source: HEK293F cells (BacMam system), purified (Ni-NTA, thrombin digestion on column, Superose 6 SEC in …)
# B2: Mus musculus Otopetrin 2 (mOTOP2), wild type (natural protein)
# chain: MSEELVPHPNESLPGPRASPREVWKKGGRLLSVLLAVNVLLLACTLISGGAFNKVAVYDTDVFALLTTMMLLAALWIVFYLLRTARCPDAVPYRDAHAGPIWLRGGLVLFGICTLVMDVFKTGYYSSFFECQSAIKILHPIIQAVFVIVQTYFLWISAKDCIHTHLDLTRCGLMFTLATNLAIWMAAVVDESVHQAHSYSGSHGNTSHTRLNPDSKRAGGAAEEDPCLCSTAICQIFQQGYFYLYPFNIEYSLFASTMLYVMWKNVGRLLASTHGHGHTPSRVSLFRETFFAGPVLGLLLFVVGLAVFILYEVQVSGERGHTRQALVIYYSFNIVCLGLMTLVSLSGSVIYRFDRRAMDHHKNPTRTLDVALLMGAALGQYAISYYSIVAVVVGSPRDLQGALNLSHALLMIAQHTFQNVFIIESLHRGPPGAEPREMPPKEPCQGITFANLDAIRTLPSCPPTPRLVIPNLESPQEAVAIISAPRCHWRRRCLKDISLFLLLCNVILWIMPAFGARPHFSNTVEVDFYGYSLWAAIVNICLPFGIFYRMHAVSSLLEVYVLS
# notes: Otopetrin 2 (mOTOP2), Mus musculus; wild type; the AlphaFold model AF-Q80SX5-F1 was the initial model; N-terminal 10x His tag, then GFP, then a thrombin cleavage site; residues of the site may remain after digestion; also called mouse OTOP2; WT mOTOP2; source: HEK293F cells (BacMam system), purified (Ni-NTA, thrombin digestion on column, Superose 6 SEC in GDN); not shown: His10, N-terminal, …
# B3: mOTOP2 V370W (natural protein, Mus musculus)
# chain: B2 chain with V370W
# notes: Otopetrin 2 (mOTOP2), Mus musculus, with the point mutation V370W on TM9; same construct as the wild-type channel; The general purification protocol removes His10-GFP with thrombin; also called mOTOP2 V370W loss-of-function mutant; source: HEK293F cells (pEZTBM vector, same construct as the wild type), purified
# B4: mOTOP2 L30W (natural protein, Mus musculus)
# chain: B2 chain with L30W
# notes: Otopetrin 2 (mOTOP2), Mus musculus, with the point mutation L30W on TM1; same construct as the wild-type channel; The general purification protocol removes His10-GFP with thrombin; also called mOTOP2 L30W loss-of-function mutant; source: HEK293F cells (pEZTBM vector, same construct as the wild type), purified
# B5: mOTOP2 M374W (natural protein, Mus musculus)
# chain: B2 chain with M374W
# notes: Otopetrin 2 (mOTOP2), Mus musculus, with the point mutation M374W on TM9; same construct as the wild-type channel; The general purification protocol removes His10-GFP with thrombin; also called mOTOP2 M374W loss-of-function mutant; source: HEK293F cells (pEZTBM vector, same construct as the wild type), purified
# Columns and labels:
# [1] = biological target: the molecule itself; assay: cryo-EM structure; single-particle cryo-EM of protein purified in GDN detergent (20 mM Tris, 150 mM NaCl, 0.04% GDN), 3.0 mg/mL; samples at pH 5.0 and 8.0 (CeOTOP8), pH 5.0, 7.0, 8.0 and 9.0 (mOTOP2), pH 8.0 (mOTOP2 M374W)
# [2] = biological target: the molecule itself; assay: SEC; loss-of-function mutants of mOTOP2 purified as a stable dimer (Supplementary Fig. 10b, not shown); the general purification ends with Superose 6 10/300 GL in 20 mM Tris pH 8.0, 150 mM NaCl, 0.04% GDN
protein,measurement,setting,value
B1,stoichiometry N,[1],2
B2,stoichiometry N,[1],2
B3,stoichiometry N,[2],2
B4,stoichiometry N,[2],2
B5,stoichiometry N,[2],2
